Test [1] has as its target T1, C1q (UniProt P02745 23-245; P02746 28-253; P02747 29-245).
T1 construct: also called serum complement C1q; complement C1q
Kind of test: BLI (Fortebio Octet), antibody on FAB2G sensor, C1q 1.25-20 nM, 1:1 fit. How it is done:
(§1) 50 μg/mL antibody was immobilized on the FAB2G sensor at an immobilization height of about […]. […] The antigen and antibody were dissociated in the buffer for 60 s. The sensor was refreshed 4 times in 10 mM glycine pH 1.7, each for 5 s. The shaking speed of the sample plate was 1000 rpm, the temperature was 30° C. and the frequency was 0.6 Hz. The data were analyzed by 1:1 model fitting to obtain affinity constants. The data acquisition software was Fortebio Data Acquisition 7.0, and the data analysis software was Fortebio Data Analysis 7.0.

Test [2] addresses T2, FcγRIIb (UniProt P31994 43-217, limits assumed).
T2 construct: also called CD32b
T2 sequence (looked up): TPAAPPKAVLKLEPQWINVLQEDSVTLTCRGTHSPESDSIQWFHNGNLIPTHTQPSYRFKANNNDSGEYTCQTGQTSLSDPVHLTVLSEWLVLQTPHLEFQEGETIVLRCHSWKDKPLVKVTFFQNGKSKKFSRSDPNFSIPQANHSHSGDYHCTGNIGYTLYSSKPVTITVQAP
Kind of test: BLI (Fortebio Octet), FcγRIIb on NTA sensor, antibody 12.5-200 nM, 1:1 fit. As for the experimental part: (§2) 5 μg/mL FcγRIIb was immobilized on the NTA sensor at an immobilization height of about 1.0 nm. […] The antibody was dissociated in the buffer for 60 s. The sensor was refreshed in 10 mM glycine pH 1.7 and 10 nM nickel sulfate. The temperature was 30° C. and the frequency was 0.6 Hz. The data were analyzed by 1:1 model fitting to obtain affinity constants.

The target in test [3] is T3, FcγRI (UniProt P12314 16-288, limits assumed).
T3 construct: construct not described; also called CD64; FcγR1
T3 sequence (P12314 16-288 limits assumed): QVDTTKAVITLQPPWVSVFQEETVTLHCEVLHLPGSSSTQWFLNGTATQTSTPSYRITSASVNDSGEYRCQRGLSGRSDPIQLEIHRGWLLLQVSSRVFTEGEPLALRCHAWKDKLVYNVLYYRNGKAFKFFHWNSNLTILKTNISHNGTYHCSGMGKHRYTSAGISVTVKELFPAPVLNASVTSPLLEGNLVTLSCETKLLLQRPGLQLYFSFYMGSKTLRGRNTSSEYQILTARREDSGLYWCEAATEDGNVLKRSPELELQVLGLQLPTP
Description: BLI (Fortebio Octet), FcγRI on HIS1K sensor, antibody 3.12-50 nM, 1:1 fit. How it is done:
(§3) A 1 μg/mL FcγRI solution (from Sinobio) was added to the HIS1K sensor to immobilize the FcγRI on the sensor surface for 50 s. […] The sensor with immobilized antigen was equilibrated in the buffer for 60 s, and then the binding of the immobilized FcγRI on the sensor to the antibodies was determined for 120 s; the dissociation of FcγRI from the antibodies was determined in 120 s. The temperature was 30° C. and the frequency was 0.3 Hz. The data were fitted and analyzed with a 1:1 model to obtain the affinity constants to FcγRI for the antibodies.

For the next test, the target named is T4, FcγRIIa_H131 (UniProt P12318 34-218).
T4 construct: H131 polymorphic form
T4 sequence (looked up): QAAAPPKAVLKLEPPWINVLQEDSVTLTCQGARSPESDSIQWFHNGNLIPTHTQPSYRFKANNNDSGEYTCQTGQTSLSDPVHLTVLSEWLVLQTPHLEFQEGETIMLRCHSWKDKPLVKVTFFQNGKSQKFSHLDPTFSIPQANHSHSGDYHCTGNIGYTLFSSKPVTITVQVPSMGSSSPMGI
Description: BLI (Fortebio Octet), FcγRIIa_H131 immobilized on NTA sensor, antibody in solution at 12.5-200 nM. As for the experimental part: 5 μg/mL FcγRIIa_H131 was immobilized on the NTA sensor at an immobilization height of about 1.0 nm. […] The antibody was dissociated in the buffer for 60 s. The sensor was refreshed in 10 mM glycine pH 1.7 and […] nickel sulfate. The temperature was 30° C. and the frequency was 0.6 Hz. The data were analyzed by 1:1 model fitting to obtain affinity constants.

A further test has as its target T5, FcγRIIIa_F158 (UniProt P08637 17-208).
T5 construct: F158 polymorphic form
Description: BLI (Fortebio Octet), FcγRIIIa_F158 immobilized on HIS1K sensor, antibody in solution at 31.25-500 nM. How it is done:
5 μg/mL FcγRIIIa_F158 was immobilized on the HIS1K sensor for 120 s. […] The antibody was dissociated in the buffer for 60 s. The sensor was refreshed 4 times in 10 mM glycine pH 1.5, each for 5 s. The temperature was 30° C. and the frequency was 0.3 Hz. The data were analyzed by 1:1 model fitting to obtain affinity constants.

The target of test [4] is T2, FcγRIIb. Kind of test: BLI (Fortebio Octet), FcγRIIb immobilized on NTA sensor, antibody in solution at 12.5-200 nM. How it is done: as §2
The target of test [5] is T3, FcγRI. Description: BLI (Fortebio Octet), FcγRI immobilized on HIS1K sensor, antibody in solution at 3.12-50 nM. As for the experimental part: as §3
In the next test the target is T6, FcγRIIIa_V158 (UniProt P08637 17-208).
T6 construct: V158 polymorphic form (mature numbering)
T6 sequence (P08637 17-208 F176V limits assumed): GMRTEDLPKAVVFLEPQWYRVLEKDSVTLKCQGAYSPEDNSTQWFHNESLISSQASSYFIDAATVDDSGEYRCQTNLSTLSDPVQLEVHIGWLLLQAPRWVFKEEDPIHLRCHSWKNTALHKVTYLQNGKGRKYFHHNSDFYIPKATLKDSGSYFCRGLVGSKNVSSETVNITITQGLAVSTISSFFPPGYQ
Kind of test: BLI (Fortebio Octet), FcγRIIIa_V158 immobilized on HIS1K sensor, antibody in solution at 31.25-500 nM. As for the experimental part: 5 μg/mL FcγRIIIa_V158 was immobilized on the HIS1K sensor for 120 s. […] The antibody was dissociated in the buffer for 60 s. The sensor was refreshed 4 times in 10 mM glycine pH 1.5, each for 5 s. The temperature was 30° C. and the frequency was 0.3 Hz. The data were analyzed by 1:1 model fitting to obtain affinity constants.

Test [6] has as its target T1, C1q. Description: BLI (Fortebio Octet), antibody immobilized on FAB2G sensor, C1q in solution at 1.25-20 nM. As for the experimental part:
as §1

T1 sequence (P02745 23-245 limits assumed, chain 1 of 3): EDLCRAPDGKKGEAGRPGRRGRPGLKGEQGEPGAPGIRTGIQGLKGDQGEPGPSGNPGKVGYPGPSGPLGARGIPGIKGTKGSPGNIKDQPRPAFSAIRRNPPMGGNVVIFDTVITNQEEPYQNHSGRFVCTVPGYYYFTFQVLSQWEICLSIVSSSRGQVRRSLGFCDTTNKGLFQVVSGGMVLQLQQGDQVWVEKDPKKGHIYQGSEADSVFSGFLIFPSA
T1 sequence (P02746 28-253 limits assumed, chain 2 of 3): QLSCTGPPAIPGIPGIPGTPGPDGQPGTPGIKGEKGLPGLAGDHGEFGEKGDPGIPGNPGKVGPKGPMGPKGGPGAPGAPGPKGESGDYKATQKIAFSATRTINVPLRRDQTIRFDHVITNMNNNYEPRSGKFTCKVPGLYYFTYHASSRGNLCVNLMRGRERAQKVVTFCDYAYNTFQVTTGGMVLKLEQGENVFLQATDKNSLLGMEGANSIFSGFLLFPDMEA
T1 sequence (P02747 29-245 limits assumed, chain 3 of 3): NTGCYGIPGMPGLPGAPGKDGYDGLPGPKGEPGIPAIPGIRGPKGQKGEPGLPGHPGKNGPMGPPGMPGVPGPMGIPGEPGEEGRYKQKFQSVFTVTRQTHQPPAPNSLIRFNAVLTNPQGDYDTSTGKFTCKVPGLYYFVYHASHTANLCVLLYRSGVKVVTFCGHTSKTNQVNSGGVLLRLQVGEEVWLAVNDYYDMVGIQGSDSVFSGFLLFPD
T5 sequence (P08637 17-208 limits assumed): as the sequence (P08637 17-208 F176V limits assumed) above, with V160F counted along it

B1: 5C10H2L2-IgG1mt (antibody)
chain 1: not shown
chain 2: EIVLTQSPDTLSVTPKEKVTLTCRASQSIGTNIHWFQQKPGQSPKLLIKYASESISGVPSRFSGSGSGTDFTLTINSVEAEDAATYYCQQSNSWPYTFGQGTKLEIKRTVAAPSVFIFPPSDEQLKSGTASVVCLLNNFYPREAKVQWKVDNALQSGNSQESVTEQDSKDSTYSLSSTLTLSKADYEKHKVYACEVTHQGLSSPVTKSFNRGEC
Consider B1, for which, in the test with C1q [1], binding was characterised by a dissociation constant (Kd) of 4.43 nM, the off-rate (koff) was 0.0105 s⁻¹ and the on-rate (kon) worked out at 2.38e+06 M⁻¹ s⁻¹.

B2: BiAb004(hG1WT) (bispecific antibody, human IgG1, kappa)
heavy: not shown
light: DIQMTQSPSSMSASVGDRVTFTCRASQDINTYLSWFQQKPGKSPKTLIYRANRLVSGVPSRFSGSGSGQDYTLTISSLQPEDMATYYCLQYDEFPLTFGAGTKLELKRTVAAPSVFIFPPSDEQLKSGTASVVCLLNNFYPREAKVQWKVDNALQSGNSQESVTEQDSKDSTYSLSSTLTLSKADYEKHKVYACEVTHQGLSSPVTKSFNRGEC
notes: IgG-scFv (Morrison format); also called BiAb004(M); BiAh004(M)
For the molecule B2, the dissociation constant (Kd) worked out at 56.1 nM with FcγRIIb [2], 5.92 nM with FcγRI [3] and 2.53 nM with C1q [1].

B3: BiAb004(hG1TM) (bispecific antibody, human IgG1, kappa)
heavy: not shown
light: DIQMTQSPSSMSASVGDRVTFTCRASQDINTYLSWFQQKPGKSPKTLIYRANRLVSGVPSRFSGSGSGQDYTLTISSLQPEDMATYYCLQYDEFPLTFGAGTKLELKRTVAAPSVFIFPPSDEQLKSGTASVVCLLNNFYPREAKVQWKVDNALQSGNSQESVTEQDSKDSTYSLSSTLTLSKADYEKHKVYACEVTHQGLSSPVTKSFNRGEC
notes: IgG-scFv (Morrison format), anti-PD-1 IgG1 with an anti-CTLA4 scFv on the C terminus of each heavy chain
Turning to B3, the binding result is recorded as “no binding (tested: 200 nM)” in the test with FcγRIIa_H131; “no binding (tested: 500 nM)” with FcγRIIIa_F158; “no binding (tested: 200 nM)” with FcγRIIb [4]; “no binding (tested: 50 nM)” with FcγRI [5]; “no binding (tested: 500 nM)” with FcγRIIIa_V158; “no binding (tested: 20 nM)” in the test with C1q [6].

(Values after patent US20220275089A1 (AKESO PHARMACEUTICALS, published 2022).)
